Test results from the domain aggregation screens of Martell et al. (2025).

Assay: soluble fraction after stress (log2 fold change); higher = more stays soluble; pooled small domains, quantitative proteomics
Conditions: stress: 75 degC
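Also: 20 min heating vs room temperature control held 20 min.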

| Sequence | soluble fraction (log2) |
| --- | --- |
| HMEGRTVMATTAVNVRSGPGTSYKILGVLYPGHTAQQIGNTRYGWAQVTWKGHTAYIAARYLRDS | -2.71 |
| HMEGSLQEDKVKEYQDRFKEELSNDLNTANSITVLYDLIKDDTLNGTTKRYLIEDFDKILSLDLIKE | 0.167 |
| HMEGSVTVMVNGESVTMTGKQNYIFVDVFDWYSFDLSAGKGRAIATLVNGKEAEFSQPLANGDNIELYWKE | -2.15 |
| HMEGTAAAVALKGLMEQSGVDLREVMAAVESRGYYPKGTPFENYDPAFVSGVLVGAWDQVYKMILDQRPIP | -0.692 |
| HMEGVSPQTVQEHIRRFIAAEDPASPLSDEALREALGNLGINASRRTVAKYRGEMGIPSSAQRKR | -0.0573 |
| HMEGVSSESVKEMLKSIIDGEDPHNPVSDQRITDILNSRGINISRRTVAKYRDELGIASSSRRKRY | 0.298 |
| HMEGYLYLSESQNELILKNLKTPLKYNLYNASGKLIKKGNIKNTLDISELPKGVYIFTSSDNSFSKKFLKT | -1.55 |
| HMEHAETDTRERILVVAERLFRQLGYQKTTVADIAKELRMSPANVYRFFDSKKSIHEGVARTL | -0.896 |
| HMEHETTQLELNAPGQRLDAALALALPDTSRAQIQQWIKQGLVTDQAGTALLQASLKLKSPLNVVLQRPI | -0.215 |
| HMEHIDVSGRAFDVSVSRLKRARRLTMRIDTHKQLVKISAPLHVESSTIRAFLARNQNWLEQQVEKR | -0.839 |
| HMEHLTATERHLVAYLEAHLGQVPSLSITKLSQEANVSTASIVRTMKKLGYDGFTAFKHAIKQQLR | -2.67 |
| HMEHTPHGVALLRTLMDQYGLKAADLANELGSKSNVSNILNGRRALTVSHIKMLAERFNLPADAFI | -1.33 |
| HMEIALNDKQILLFSNKLVHEPSFASKYSKVGESYDDFAIRISENLTIPDKVQEYLPYLEKVGFNI | -0.622 |
| HMEIDDPWLILGINAGSSIEIAQKAWKDLASQNHPDKLIANGVPKELLGMANEKLAIINGAYDKILKAHKI | -0.295 |
| HMEIETPEIRAIHDLLELLANKAKKPEQEQFVQAHPEVQWAKVEANKNGTFAVGKVKAYLKTLQA | -0.39 |
| HMEIGNVIAKLRVSNGLNQREFAKKLEVSNGAVAMWETNKRQPDLEMIKKISNLFDVPTDYILGAGTFQ | -0.838 |
| HMEIIFVEHKVRPGESVWLIARKYKVKKNHILAVNNLSEKSIIRPKQILKIPTSGYDQYKKSVE | -3.79 |
| HMEIIMIVITKPSITDERIAEIVAVIERNGGVQAHVSKGTDRTVIGIIGKAEPTLAEHLRQMKGVENVIKI | -1.33 |
| HMEIPMRDKLKTYIDYLFAGAPQTAATAETKAEILQNTLDKYDDLIAEGKTPEAAYSLAVSGIGDLGDF | -0.179 |
| HMEIPTEEILKQKLYYSISEVASWFKVNTSLLRYWENEFDILQPRKTRKGDRLFRVEDIKNLQLIYLL | 0.26 |
| HMEITGKYKAKEDIKLKVIPLISSLDLQDIKQNTELEVKDTMNNWAYVTVQEKQGWVVLEKIEKVE | -0.631 |
| HMEITTLTGVLGAGRLDSALAAALPQYSRARIQALISDAALRINGQVVADAGSKKMSGQTFELNIPAPVP | -0.594 |
| HMEKDEYIFVDIDGAVFNPGVYKLIAGSRVIDAINLAGGLKEKAFTQNLNKARKLVDGEKIYIYLEGDEE | -0.552 |
| HMEKDRDKRIRKRVLTALKRNDKKMTDKAFALLTSRIRDESILDQEVLKLIGYVGDRTTIDSKDINIVVAE | -0.392 |
| HMEKEEELNSIRPDLDGNDIMEILGVPAGPKVGKAYNYLLNVRLDEGPLSRAEAISRLEAWWENQ | -0.168 |
| HMEKELVSDFASRISTARSSKGWNHAELGKRMAETVNVIKSAESGKPPTDSVVKKLERVLGITLMEV | -0.0517 |

| Sequence | soluble fraction (log2) |
| --- | --- |
| HMEKEYMKNVVGMEYRQARVLLGDMGLELAFQPVYETSDKYPTDVVVSTEPAADQPLTKGQTVILHIST | -0.332 |
| HMEKGNEEALEQAREAILAVQSGEKYVDLDPANAAIRRKQHALAQASDLVSQSYGKDPNRYVRIFR | 0.233 |
| HMEKINLLVENNDNYRLDKIIALNMEELSRTQIQEMIGQGLVLVNGKVEKASYKTKLNDQIEITIED | -0.0065 |
| HMEKKKVPEVAGQDEAAARNVMTNSGFVVDVEQKEDDNVPAGKVITTAPAGGVEVVEGTKIILYVSKGSN | -0.052 |
| HMEKKPYGEMHNVMLTDEELEKLRHDYPAHFAEYIQRLSLHIDAKGARYKSHYAVIRKWLIADGVKA | -2.36 |
| HMEKLIRIKRLIKQLNEYRDSYYNEARPVVSDAAYDKLFDELSELEKETGVVYANSPTQTVG | 0.0942 |
| HMEKPTEITLSNRVSVQELAEKMYVSETDIIRTLFLDGRIININQVLDIDTAIRVGEQLGIKIKII | -2.14 |
| HMEKPTRNKLVEIIIQNKNVTTEQMANLLNISRRAVAKHIKKLQEEGIIRRIGPDFGGHWEIVK | -0.294 |
| HMEKPYTPPANLNEIQSYEELSKAVQYYNKVKDAATTDADRLKAQQSIDTLEDMRKAWDAASST | 0.328 |
| HMEKSLSAQVYEKIKAGIISLKYPPGSVLKERELSESLGVSRTPVREAIQRLSQESWLVPGEGKRMQVRP | -0.0542 |
| HMEKTLAERVNDILAEIKMTKQELAMQLNISRSAVSQYLNGKYSSNPEAIEARLRDFVSSYDRG | -0.292 |
| HMEKYIVEAEEQGKRLDMYISSKDEELTRTSAQRLIEQGDILVNNKKVKVAYKVSEGDIIAVEKQ | -0.0711 |
| HMELDLPLEELGLSTRVLHSLKEEGIESVRALLALNLKDLKNIPGIGERSLEEIKEALEKKGFTLK | -0.103 |
| HMELEENTERVLNILIENDIISENDIAEKLEVKINGARKALYKLKEVGFVEYTKERDEEKKWWYIYFWKLN | -0.132 |
| HMELEKIRPDLDGLEIMAILGISPSPIVGRAYQYLLDLRMDRGPLGPDAAKAELLNWWSLNQPK | -1.66 |
| HMELGRQDSAQLGRWAAGILAKNGKKITGRTMEFFLSRTGDDMENISSELEKLISYTLGREVITEEDIEAV | -0.263 |
| HMELGWYVRLRRRELGLSVTALAEKAGMSQSYLSQIETGDRGNPSPESLRSLAEALEVSPRELESLV | -2.82 |
| HMELMKPPGYWQSLENAIYESKKVIKEHGFDTLPSSNKLRELDYHGLSRAISVHHSGFPNFREIMNQELGI | -0.00652 |
| HMELNDEELIKGIQELLTKIGYDPGEINGVLGIKTSSAISAFQQSRNKAITGEADLDLLVQLQIELRKITT | -1.86 |
| HMELNGVSETAKSVYSIILNNSSTVDDIVIKTKLPAAKVMQALTELELNDAVERKSGGVYALP | 0.0577 |
| HMELPADLATVLSVDDIRAIALAEVPGSTITGVELEREEGVLVYKVKFNDGSYKLYDANTGELV | 0.105 |
| HMELPPLEPIDRILVVQQPINIREQPGVLAKKIGRVSSGETLTILAKVSGQDWYFVETDNGGRGYVFKRV | -1.15 |
| HMELQYSQEIEEAQKILENLGLYRGEIDGINGINTKSAIREFQRKSGLVVDGILGPNTTNALSKGSDAYIT | 0.0481 |
| HMELVQIIGNNIRDLMTTRSVTITDLANYLNVSRQTLQNYLRGSNIIDSVKLVAVSDFFDVPVESLLQSK | -1.45 |
| HMEMGNKIKELRTKLGITQEELSKTLNVSSQAVSKWENGGLPDLELIPEIAKYFNVTTDYLFDIK | -0.187 |
| HMEMKVIPFNQMTRDQFDQLDRFLGRLAAAQAMGSLRLTKAQQNYFLNQVKQLDLYRKRILN | -1.96 |

| Sequence | soluble fraction (log2) |
| --- | --- |
| HMEMTSREIIKRLEEDGWYHVKTTGDHYQMKHPTKPGKVTIVHPAKDLSIGTLRSIEKQSGVRL | -0.18 |
| HMEMVSMPGLTGSTLEFATKTLTENELKYEVVYIVDASAESGLIIRTYPTEGEMVSKKTSTIYLYIKE | -3.4 |
| HMENDGQFLRAEREKYGLTLTDIYEHTHIPIKKLKAYEMWEEEMPPRTRALLELYFDQVAFEYDS | -0.862 |
| HMENDPYEILGIARSASDDEIKAKYRALTRENHPDILMAKGVPQEFIDLANEKMAVINAAYDKIEKER | 0.407 |
| HMENEDMTGDIRVIDYIRNVAEYIQTTKGQASASQMLDRFLFPPELQYTPLDKLSGGEQRRLYLLKVLMEA | 0.0433 |
| HMENEFEAYSDGSSIQLNDPSKATYVVFDRQGRLLHLFQNHSLSSLSIERKNQILIITRETADGVSVKKIV | -0.53 |
| HMENEIPVPELVGMSEADAAAKLASLGLERDTQREATADEESVGKVLRQEPTPGEYVDEGHKVTIWVGE | 0.184 |
| HMENFSTLFSRLKEERGLSNKQISSFTGAPIKEVKKWESGMGIPTEKRIVAALEGILGSEISKAI | -0.125 |
| HMENHILIIDDDLMLLKTAEEILSDQYNVSVAKSGIQALNLLNKNIIPDLILLDIDMPQMDGYETL | -0.0633 |
| HMENIIFDIGFHKGEDTLFYLLKGYRVIAVDADPDLINEWQNIFKKYIENGKLLLLNYVISDT | -1.29 |
| HMENISVESKMKLLLKSLKTRDFISLPELVLKGESKLAISVILVAALELNRKGYIEVVQAEQFGEIYFKNT | -0.173 |
| HMENKVLVITEEEKGKRLDVYLAAALEVSRSYAQQLIQGEDVVVNDKQVKANYRLSEGDVVQVQLD | 1.01 |
| HMENLIEELTAKNKEYIHSVTKQLILVGKSDEEVKEILNDILPQIIEGQKSGIIARKLLGAPTEFVSQYQP | -0.269 |
| HMENLQLQQLVKGLPEKMQEIVILRFSQELTMREIADIVNLPMRTVQSQLRLALKILKKEMG | -0.682 |
| HMENLSFNINSEEEGQRIDKYLSVMIEGKSRSFVQGLIEEKKVKANSKVIKSNYKLKKGDFIEVEVPEPV | 0.289 |
| HMENLSGNDIKYLRKKYNLTQKELADALGLQKFGDRTIRRWEAEETHPSKLEQSSIQSFFNSLK | -0.0716 |
| HMENLTLVIGNKLKNIRNSRNLSLDDVAELTGVSKAMLGQIERGKSNPTVSTLWKISTGLRVSFSSFIDE | -3.44 |
| HMENLVPVVVATTNIEPRTQITDAMVKVEQIPALGRNESMLEDPALVVGGYATGKIYAGQSFIQPMVSK | 0.351 |
| HMENNIILNYVKDNLNITEKDAKDLIELLGSDYYHIKNETNKIAAFLDGQPYSFEKIKNLISIDKEY | 0.0409 |
| HMENPLETYYSQWVSAIKREHPEASFVKDTDGKYYVEGLTKNRLAVIYENPHLVRLVNATTNLHVE | -0.567 |
| HMENPVPVIITDQNFQPLLWKNVGVPTDTIFHELSPENQKKLENLMKTMVQMPLTDDGRISGYAYYSK | 0.0767 |
| HMENQFNDWSLTPSEKEVALFMLKGLSTQEIAAARNTKEKTVRQQASAVYAKSQLDGRYALAAWFFEDI | -0.702 |
| HMENQMIIYIDENDENKRLDSYLSEITPDYSRSKIQNFIKNGNVTVNDSNKKPSYLLKENDKISFELPQQ | -0.0893 |
| HMENSLLSESLAKIYIKTHRYERAYEILSRLSLAVPEKNAYFADQLRFLRKVMLAESFRKQHS | 0.0207 |
| HMENTSPMTPEQSKALMAYLTKRHGDSREAYLSELSQFFGRPLSSSRELTKADVSEFLNAIN | 0.0561 |
